According to article PMC2191977 (The Journal of Experimental Medicine, 1995):

Biological target: B7 QDP/LEK (mouse) (UniProt Q00609)
Assay: flow cytometry on cells

CTLA4Ig, sequence (P09793 36-161): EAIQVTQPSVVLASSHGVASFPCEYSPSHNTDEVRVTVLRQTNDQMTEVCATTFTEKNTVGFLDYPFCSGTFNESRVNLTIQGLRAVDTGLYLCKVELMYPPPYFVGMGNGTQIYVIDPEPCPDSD

Substance: CTLA4Ig (from UniProt P09793 36-161) (Fc fusion)
- % wild-type B7 binding (normalised to anti-B7 mAb 10.16A.1): 15%
- MF (mean fluorescence, control subtracted): 42 MF
